Article PMC4970744

Target: HPV-16Q150A peptide (Human papillomavirus type 16)
Experiment: affinity purification with mass spectrometry; biotinylated peptide (500 ug) on streptavidin magnetic sepharose beads; pre-cleared HaCaT cell extract, 2 h at 4°C; lysis buffer 50 mM HEPES pH 7.4, 150 mM NaCl, 1 mM MgCl2, 1% Triton X-100; trypsin digest and mass spectroscopy; pooled from at least two pull-downs

B1: ZO-2 (natural protein)
chain: MPVRGDRGFPPRRELSGWLRAPGMEELIWEQYTVTLQKDSKRGFGIAVSGGRDNPHFENGETSIVISDVLPGGPADGLLQENDRVVMVNGTPMEDVLHSFAVQQLRKSGKVAAIVVKRPRKVQVAALQASPPLDQDDRAFEVMDEFDGRSFRSGYSERSRLNSHGGRSRSWEDSPERGRPHERARSRERDLSRDRSRGRSLERGLDQDHARTRDRSRGRSLERGLDHDFGPSRDRDRDRSRGRSIDQDYERAYHRAYDPDYERAYSPEYRRGARHDARSRGPRSRSREHPHSRSPSPEPRGRPGPIGVLLMKSRANEEYGLRLGSQIFVKEMTRTGLATKDGNLHEGDIILKINGTVTENMSLTDARKLIEKSRGKLQLVVLRDSQQTLINIPSLNDSDSEIEDISEIESNRSFSPEERRHQYSDYDYHSSSEKLKERPSSREDTPSRLSRMGATPTPFKSTGDIAGTVVPETNKEPRYQEDPPAPQPKAAPRTFLRPSPEDEAIYGPNTKMVRFKKGDSVGLRLAGGNDVGIFVAGIQEGTSAEQEGLQEGDQILKVNTQDFRGLVREDAVLYLLEIPKGEMVTILAQSRADVYRDILACGRGDSFFIRSHFECEKETPQSLAFTRGEVFRVVDTLYDGKLGNWLAVRIGNELEKGLIPNKSRAEQMASVQNAQRDNAGDRADFWRMRGQRSGVKKNLRKSREDLTAVVSVSTKFPAYERVLLREAGFKRPVVLFGPIADIAMEKLANELPDWFQTAKTEPKDAGSEKSTGVVRLNTVRQIIEQDKHALLDVTPKAVDLLNYTQWFPIVIFFNPDSRQGVKTMRQRLNPTSNKSSRKLFDQANKLKKTCAHLFTATINLNSANDSWFGSLKDTIQHQQGEAVWVSEGKMEGMDDDPEDRMSYLTAMGADYLSCDSRLISDFEDTDGEGGAYTDNELDEPAEEPLVSSITRSSEPVQHEESIRKPSPEPRAQMRRAASSDQLRDNSPPPAFKPEPPKAKTQNKEESYDFSKSYEYKSNPSAVAGNETPGASTKGYPPPVAAKPTFGRSILKPSTPIPPQEGEEVGESSEEQDNAPKSVLGKVKIFEKMDHKARLQRMQELQEAQNARIEIAQKHPDIYAVPIKTHKPDPGTPQHTSSRPPEPQKAPSRPYQDTRGSYGSDAEEEEYRQQLSEHSKRGYYGQSARYRDTEL
reduction in binding against the HPV-16 peptide: 25%
